Laboratory results from paper PMC3510516.
pKd: −log10 of the molar value.

Columns and labels:
Assay in all cases: fluorescence anisotropy
[1] = test system: GyrA CTD lacking GyrA-box (Bacillus subtilis); settings: CTD: 50 mM Tris-HCl, 40 mM KCl (Results say NaCl), 10 mM MgCl2, 25 C (pH not stated), 100 nM DNA; gyrase: 50 mM Tris-HCl pH 7.5, 100 mM KCl, 10 mM MgCl2, 37 C …
[2] = test system: GyrA CTD (Bacillus subtilis); settings: CTD: 50 mM Tris-HCl, 40 mM KCl (Results say NaCl), 10 mM MgCl2, 25 C (pH not stated), 100 nM DNA; gyrase: 50 mM Tris-HCl pH 7.5, 100 mM KCl, 10 mM MgCl2, 37 C …
[3] = test system: GyrA;GyrB (Bacillus subtilis;Bacillus subtilis); settings: 4 uM GyrB, 10 mM Mg2+, 37 C; CTD: 50 mM Tris-HCl, 40 mM KCl (Results say NaCl), 10 mM MgCl2, 25 C (pH not stated), 100 nM DNA; gyrase: 50 mM Tris-HCl pH 7.5, 100 mM KCl, 10 mM MgCl2, 37 C …
[4] = test system: GyrA lacking GyrA-box (GyrA_dA);GyrB (Bacillus subtilis;Bacillus subtilis); settings: 4 uM GyrB, 10 mM Mg2+, 37 C; CTD: 50 mM Tris-HCl, 40 mM KCl (Results say NaCl), 10 mM MgCl2, 25 C (pH not stated), 100 nM DNA; gyrase: 50 mM Tris-HCl pH 7.5, 100 mM KCl, 10 mM MgCl2, 37 C …

Substance | pKd [1] | pKd [2] | pKd [3] | pKd [4]
40-bp DNA wrapping substrate | 4.88 | 4.88 |  | 
60-bp gate-DNA |  |  | 7.20 | 7.30
